Data taken from paper PMC6182170, “A protein–protein interaction underlies the molecular basis for substrate recognition by an adenosine-to-inosine RNA-editing enzyme”.

Target: T1, ADR-1 dsRBD2 mutant (ds2) (Caenorhabditis elegans, UniProt Q9U3D6 1-964, K584E;K585A;K588A)
T1 sequence: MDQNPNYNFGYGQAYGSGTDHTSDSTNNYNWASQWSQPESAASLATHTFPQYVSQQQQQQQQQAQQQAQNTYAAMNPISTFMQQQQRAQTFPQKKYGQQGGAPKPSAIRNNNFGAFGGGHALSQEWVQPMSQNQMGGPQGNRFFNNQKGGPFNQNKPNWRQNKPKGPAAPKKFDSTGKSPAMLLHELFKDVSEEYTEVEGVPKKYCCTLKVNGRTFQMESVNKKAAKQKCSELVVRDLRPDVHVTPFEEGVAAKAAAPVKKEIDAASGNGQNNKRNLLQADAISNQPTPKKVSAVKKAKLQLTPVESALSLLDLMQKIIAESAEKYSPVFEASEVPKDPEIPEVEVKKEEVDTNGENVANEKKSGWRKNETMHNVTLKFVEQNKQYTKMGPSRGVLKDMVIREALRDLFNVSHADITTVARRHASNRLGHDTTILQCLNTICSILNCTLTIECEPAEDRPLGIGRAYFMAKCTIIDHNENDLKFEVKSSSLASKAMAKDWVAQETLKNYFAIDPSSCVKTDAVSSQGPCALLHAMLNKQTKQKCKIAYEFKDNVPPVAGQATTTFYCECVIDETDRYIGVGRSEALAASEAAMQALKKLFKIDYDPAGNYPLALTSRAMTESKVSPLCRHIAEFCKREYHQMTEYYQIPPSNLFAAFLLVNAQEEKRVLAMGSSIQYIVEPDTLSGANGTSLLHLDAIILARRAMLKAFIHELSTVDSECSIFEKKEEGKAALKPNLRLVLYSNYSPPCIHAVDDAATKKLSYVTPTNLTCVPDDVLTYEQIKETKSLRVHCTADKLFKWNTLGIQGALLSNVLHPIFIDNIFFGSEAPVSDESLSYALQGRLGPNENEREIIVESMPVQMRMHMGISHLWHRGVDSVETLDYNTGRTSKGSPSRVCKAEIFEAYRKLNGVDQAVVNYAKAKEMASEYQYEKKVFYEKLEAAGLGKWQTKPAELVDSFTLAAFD
Assay: EMSA; apparent Kd; text calls binding similar to WT; EMSA: 20 pM dsRNA, 50 mM KCl, 10 mM Tris-HCl pH 8.0, 10% glycerol, 1 mM MgCl2, 0.5 mM DTT, on ice 30 min; native 6% gel, 0.5x TBE, 4 C
Conditions: protein: recombinant; tags: N-terminal 6xHis (TEV site); label: 5' 32P on ssRNAs (PNK); imperfect duplex; printed strands 45 and 46 nt

B1: lam-2 3'UTR 46 bp dsRNA (dsRNA)
RNA 1: AGACACACAUACAAAAUUUACAAAAAUUGUUAAUUGACAAAAUAC
RNA 2: GUGUUUUGCCAAUUAACGAUUUUUUGUAAAUUUUAUAUGUGUCUCU
B1 showed a Kd of 4.67 ± 0.7 nM.
